Data published in article PMC5415356.

Target: PATJ (UniProt Q8NI35)
Experiment: reciprocal co-IP (Flag or HA), immunoblot
Conditions: reference: wild type HA-Amot-p130; sites S176

## Amot-p130 (Angiomotin) (from UniProt Q8VHG2) S176A
  binding against the reference: lost
